Experimental data reported in US20030211076A1, “Compositions and methods for treatment of proliferative disorders” (priority 2003, published 2003).

Columns and labels:
lysyl oxidase (LO) = target: T1, lysyl oxidase (LO) (Bos taurus, UniProt P33072); test: LO-dependent H2O2 release, horseradish peroxidase-coupled fluorescence assay (substrate potential for LO); format: biochemical; conditions: for substrate of LO (in words): factor as sole substrate, LO-dependent H2O2 release in vitro; for molar ratio of H2O2 released per mole of PDGF-AB at the plateau: 0.11 μM LO, 0.46 μM PDGF-AB
T1 construct: per mature LO molecule (32 kD); from tissue
T1 sequence (P33072 170-418): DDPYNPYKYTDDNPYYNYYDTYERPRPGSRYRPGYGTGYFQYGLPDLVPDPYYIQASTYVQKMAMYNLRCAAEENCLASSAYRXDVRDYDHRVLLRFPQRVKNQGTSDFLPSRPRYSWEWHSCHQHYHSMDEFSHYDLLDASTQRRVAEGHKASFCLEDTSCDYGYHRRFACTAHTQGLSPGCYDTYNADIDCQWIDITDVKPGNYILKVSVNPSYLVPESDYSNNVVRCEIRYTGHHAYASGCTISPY
Protocol: The oxidation of a primary amine substrate by LO yields stoichiometric amounts of the corresponding aldehyde, hydrogen peroxide and ammonia, as shown: RCH2NH2+O2+H2O→RCHO+H2O2+NH3 (Kagan, 1986). To assess the substrate potential of FGF2, LO-dependent H2O2 release was monitored in assays using FGF2 as the sole substrate, using both the optimum temperature for LO activity of 55° C. and the physiological temperature of 37° C. (Trackman et al., 1981).
LO reaction with FGF2 as a substrate was assessed by a horseradish peroxidase-coupled fluorescence assay for H2O2 production. Reaction mixtures contained 0.25 mg of sodium homovanillate(HVA), 40 μg of HRP, and FGF2 at doses as indicated below in 0.05 M sodium borate buffer, pH 8.2, in a final volume of 2 ml. Assays were initiated by the addition of LO to reaction mixtures. H2O2 release was continuously monitored at excitation and emission wavelengths of 315 and 425 nm, respectively, at a constant temperature of 55° C. or 37° C., as specified, in the thermostatted cuvette chamber of an SLM Aminco Bowman Series 2 Luminescence Spectrometer. All activity data were corrected for background rates of H2O2 release determined in complete assay mixtures supplemented with 200 μM BAPN, an irreversible inhibitor of LO. In FIG. 4, solid curves represent the time course of H2O2 release at 55° C. in the reaction of 0.16 μM LO with 0.23 (a), 0.45 (b) and 0.9 (c) μM FGF2, respectively. Dotted curve (d) represents the time course of H2O2 release in the reaction of 0.16 μM LO with 0.9 μM FGF2 at 37° C. The same data were obtained from three separate experiments.
Using the fluorometric assay (Trackman et al., 1981) to monitor LO-dependent H2O2 release in vitro, the substrate potential of other growth factors was also assessed. Major members of the FGF family tested included FGF 1, 4, 5, 6, 7 and EGF (note: All factors are human recombinant forms purchased from R & D Systems, Inc., Minneapolis, Minn.).
A human recombinant disulfide-linked dimer of VEGF165 (MW: 42 kDa)(R & D Systems) as a sole substrate was tested by using the standard in vitro LO catalysis assays as described above for FIG. 4 (Trackman et al., 1981). Curves represent the time course of H2O2 release at 55° C. (a) or 37° C. (b) in the reaction of 0.10 μM LO with 0.45 μM VEGF165. All activity data were corrected for background rates of H2O2 release determined in complete assay mixtures supplemented with the same amounts of LO preincubated with 100 μM BAPN for 15 min at 37° C. The same data were obtained from three separate experiments.
The standard in vitro LO catalysis assays as described above for FIG. 4 (Trackman et al., 1981) using human recombinant PDGF-AB (R & D Systems) as a sole substrate was tested. […] In FIG. 19, curves represent the time course of H2O2 release at 55° C. (a) and 37° C. (b) in the reaction of 0.11 μM LO with 0.46 μM PDGF-AB, respectively. All activity data were corrected for background rates of H2O2 release determined in complete assay mixtures supplemented with the same amounts of LO preincubated with 100 μM BAPN for 15 minutes at 37° C. The same data were obtained from three separate experiments.
To analyze the substrate potential of Tat, the standard in vitro LO catalysis assays as described in FIG. 4 (Trackman et al., 1981) was performed at the optimum temperature of 55° C. and at the physiological temperature of 37° C. A recombinant Tat with 9 lysines in a total of 86 amino acids was used as a sole substrate. FIG. 12A represents a dose and temperature-dependent response. Curves represent the time course of H2O2 release at 55° C. (solid) or 37° C. (dotted) in the reaction of 0.10 μM LO with 0.22 (a and d), 0.43 (b and e) and 0.85 (c and f) μM Tat, respectively. All activity data were corrected for background rates of H2O2 release determined in complete assay mixtures supplemented with the same amounts of LO preincubated with 100 μM BAPN for 15 min at 37° C. […]

[1] = tested on: growth-arrested Swiss 3T3 cells; test: FGF2-stimulated cell cycle progression, FACS analysis; format: cell-based; conditions: 5 ng FGF2/ml (0.28 nM FGF2), 20 h
Protocol: The activity of native and LO-oxidized FGF2 on cell cycle progression was evaluated by using fluorescence activated cell sorting (FACS) analysis (Darzynkiewicz et al.). Swiss 3T3 cells were growth-arrested by incubation in 0.3% fetal bovine serum (FBS)/Dulbecco's Modified Eagle's Medium (DMEM) for 3 days. As depicted in FIGS. 6A-6C, the prepared growth-arrested cells were treated for 20 h at 37° C. with or without FGF2, LO, BAPN or their combinations as indicated. After treatment, cells were washed, suspended by treatment with trypsin, washed again and fixed in 0.5% formaldehyde/0.1% Triton X-100/PBS for 15 minutes on ice followed by incubation of samples in 10 μg propidium iodide and 20 units RNAse per ml of PBS for 60 minutes in the dark for DNA staining. The fluorescence intensities of each sample of 10,000 cells in G1, S and G2/M phases were measured by flow cytometry at the FL2 setting of the fluorescence activated cell sorting (FACS) instrument (Becton-Dickinson Corp.). […] LO was presented at 10 nM, FGF2 at 5 ng ml^−1 and BAPN at 100 μM. Data represent the means (+sd) of three separate experiments each assessed with duplicate dishes.

[2] = tested on: ERK1 and ERK2 MAP kinases; test: FGF2-stimulated MAP kinase phosphorylation, Western blot; format: cell-based; conditions: 5 ng/ml FGF2, 10 min, versus control
Protocol: Since activation of MAP kinases by FGF2 is one of the earliest mitogenic signaling events within cells (Maher), the effects of LO on FGF2-stimulated MAP kinase phosphorylation were tested by Western blot analysis using an antibody specific for phospho-extracellular signal-regulated kinases 1 and 2 (ERK1 and ERK2). The amount of total ERK1 and ERK2 MAP kinases within the same cell extracts was determined by using an antibody that recognizes both the phospho- and non-phospho-forms of ERK1 and ERK2. […] Cell extracts were prepared and equal amounts of proteins (25 μg) were analyzed by 10% SDS-PAGE. Immunoblotting was performed using antibodies specific for the active forms of ERK1 and ERK2 (A) and total ERKs (B).

[3] = tested on: FGF2 nuclear localization in Swiss 3T3 cells; test: FGF2 nuclear localization, immunochemical staining; format: cell-based; conditions: 0.28 nM FGF2 for 1 h
Protocol: After endocytosis, a fraction of exogenous FGF2 can enter the nucleus of a variety of cell types in a cell cycle-dependent manner (Mason; Rifkin et al.; Prats et al.; Stachowiak et al., 1996; Arese et al.; Baldin et al.). Thus, the possibility that oxidation of FGF2 by LO affects the nuclear localization of this growth factor was tested by using immunochemistry. In FIGS. […]

[4] = tested on: growth-arrested Swiss 3T3 cells; test: PDGF-AB-stimulated cell cycle progression, FACS analysis; format: cell-based; conditions: 15 ng PDGF-AB/ml (0.56 nM), 20 h
Protocol: Growth-arrested Swiss 3T3 cells were incubated for 20 h at 37° C. with or without PDGF-AB, LO, BAPN or their combinations as indicated. After incubation, FACS analysis was carried out to characterize the cell cycle progression under different conditions as described in FIG. 6. FIG. 20A represents a dose response of PDGF-AB in cell cycle progression. FIG. 20B represents the LO inhibition of PDGF-AB-stimulated cell cycle progression (the control represents cells treated with 15 ng ml^−1 PDGF-AB in the absence of added LO). FIG. 20C represents the effects of inactivation of LO by BAPN on PDGF-AB-stimulated the cell cycle progression. LO: 15 nM, PDGF-AB: 15 ng ml^−1, BAPN: 100 AM. Data represent the means (±sd) of three separate experiments each assessed with triplicate dishes.

maximum H2O2 released per mole of FGF2 (lysyl oxidase (LO); 37° C., 0.16 μM LO, 0.9 μM FGF2) | molar ratio H2O2 released per mole of FGF2 at the plateau (lysyl oxidase (LO); 55° C., 0.16 μM LO, 0.23 μM FGF2) | molar ratio H2O2 released per mole of FGF2 at the plateau (lysyl oxidase (LO); 55° C., 0.16 μM LO, 0.45 μM FGF2) | molar ratio H2O2 released per mole of FGF2 at the plateau (lysyl oxidase (LO); 55° C., 0.16 μM LO, 0.9 μM FGF2) | molar ratio H2O2 released per mole of FGF2, mean±standard deviation (lysyl oxidase (LO); 55° C., 0.16 μM LO, mean over 0.23, 0.45 and 0.9 μM FGF2) | substrate of LO (in words) (lysyl oxidase (LO)) | molar ratio of H2O2 released per mole of PDGF-AB at the plateau (lysyl oxidase (LO); 37° C.) | molar ratio of H2O2 released per mole of PDGF-AB at the plateau (lysyl oxidase (LO); 55° C.) | Substance | relative number of cells entering the S-M phases versus control (maximum effect) [1] | tyrosine phosphorylation of 42- and 44-kDa ERKs [2] | nuclear FGF2 staining [3] | cells entering the S-M phases versus control (maximum effect) [4]
5.3 moles of H2O2 per mole of FGF2 | 14.1 | 14.6 | 14.2 | 14.3±0.3 | productive substrate for LO |  |  | FGF2: 18 kDa human recombinant FGF2, 14 lysine residues | 4.7 fold | markedly increased | significantly increased nuclear staining | 
 |  |  |  |  | substrates of LO | 3.0 | 19.5 | PDGF-AB: 27 kDa human recombinant PDGF-AB heterodimer, 21 lysine residues |  |  |  | 3.3 fold
